Here are results for seven molecules from patent US20250270319A1.

Residue numbers refer to the chain shown, from its start.

Sequences and labels used below:
B1: anti-CD33 antibody 6C7H39 (antibody, V domains shown)
VH: EVQLVESGGGLVQPGGSLRLSCAASGFTFSEYDMLWVRQAPGKGLEWVGEIRLKSNNYVTNYAASVKGRFTISRDDTKNSVYLQMNSLKTEDTGVYYCTRAGYYVPFAYWGQGTLVTVSS
VL: QPVLTQSPSASASLGASVKLTCTLSSQHSTYTIEWYQQQPEKGPRYLMELKKEGSHSTGDGIPDRFSGSSSGAERYLTISSLQSEDEADYYCGVGVTIKEQFVYVFGGGTKLTVL
B2: anti-CD33 antibody 6C7H35 (antibody, V domains shown)
VH: B1 VH with D33A, T77S, A108T
VL: B1 VL
B3: anti-CD33 antibody 6C7H40 (antibody, V domains shown)
VH: B1 VH
VL: B1 VL with P2L, V3M, E41G, V96H, V105E
B4: anti-CD33 antibody 6C7H32 (antibody, V domains shown)
VH: B1 VH with F27S, T77S
VL: B1 VL with P2L, V3M, E41G, V96H, V105E
B5: anti-CD33 antibody 6C7H31 (antibody, V domains shown)
VH: B1 VH with F27S, T77S
VL: B1 VL
B6: anti-CD33 antibody 6C7H33 (antibody, V domains shown)
VH: B1 VH with F27S, T77S
VL: B1 VL with P2L, V3M, E41G, V96H
B7: anti-CD33 antibody 6C7H34 (antibody, V domains shown)
VH: B1 VH with F27S, T77S
VL: B1 VL with V3M, E41G, V96L

In this assay the target is recombinant cynomolgus CD33 protein (NovoProtein) (cynomolgus). The experiment in a line: ELISA, plate coated with recombinant CD33. A general note: In an ELISA, binding on a coated surface is turned into a signal by an enzyme label.
Chain of recombinant cynomolgus CD33 protein (NovoProtein) (cynomolgus) (chain, as listed by the source limits assumed): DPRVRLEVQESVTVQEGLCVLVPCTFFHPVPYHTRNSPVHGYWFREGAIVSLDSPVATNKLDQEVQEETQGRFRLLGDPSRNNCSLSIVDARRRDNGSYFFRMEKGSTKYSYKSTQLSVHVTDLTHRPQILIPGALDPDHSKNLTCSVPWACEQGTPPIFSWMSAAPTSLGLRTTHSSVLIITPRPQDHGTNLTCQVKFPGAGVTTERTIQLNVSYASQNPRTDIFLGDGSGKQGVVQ
In the case of B1, the Relative maximal binding (cyno/human) stood at 0.02.

As for B2, the Relative maximal binding (cyno/human) was determined as 0.04.

For B3, the Relative maximal binding (cyno/human) was 0.03.

With B4, the Relative maximal binding (cyno/human) is 0.01.

For the molecule B5, the Relative maximal binding (cyno/human) is 0.02.

For the molecule B6, the Relative maximal binding (cyno/human) turned out to be 0.01.

For the molecule B7, the Relative maximal binding (cyno/human) came out at 0.01.
